Data from patent publication US20240238445A1, “INHIBITORS AND USES THEREOF” (NEURACLE SCIENCE CO., LTD., priority 2021, published 2024).
Ends that are not written are not given here.

Columns and labels:
[1] = target: hFc-fused hLRRC4B and FAM19A5 complex formation (Homo sapiens, UniProt Q7Z5A7); assay: Competitive inhibition assay (IC50), plate coated with LRRC4B(453-576, TT/TT)-hFc; assay type: binding; details: Table 14; LRRC4B(453-576, TT/TT)-hFc 100 nM coat; peptide 0.03-1000 nM; read-out: IC50 (nM), Inhibition on Complex Formulation between human LRRC4B protein and recombinant FAM19A5 protein (1 ng/mL)
Description: The in silico analysis provided in Example 9 highlighted that certain T12 and L13 double mutants might be important in improving the binding affinity of the polypeptides of the present disclosure to the FAM19A5 protein. Therefore, the ability of both the wild-type FB-21 peptide (which is the same as the FB-20 peptide described herein except that the FB-21 peptide additionally contains an alanine at the C-terminus) and several FB-21 mutants were tested for their inhibitor effect on hFc-fused hLRRC4B and FAM19A5 complex formation. Briefly, plate was coated with 100 nM of LRRC4B(453-576, TT/TT)-hFc and then 1 ng/ml of rFAM19A5 was incubated at 37° C. in the presence of increasing concentrations of the different FB-21 peptide fragments (0.03, 0.1, 0.3, 1, 3, 10, 30, 100, 300 and 1000 nM). The LRRC4B-bound FAM19A5 levels were measured using HRP-conjugated 1-65 antibody.

FAM19A5 protein [2] = target: T1, FAM19A5 protein (Homo sapiens, UniProt Q7Z5A7); assay: competitive inhibition ELISA, 20 nM peptide, rFAM19A5 5 ng/mL; competitor: coated LRRC4B(36-576)-hFc
FAM19A5 protein [3] = target: T1, FAM19A5 protein; assay: competitive inhibition ELISA, 20 nM peptide, rFAM19A5 1 ng/mL; competitor: coated LRRC4B(453-576)-hFc

Molecule | IC50 [1] | Inhibition rate (%) (FAM19A5 protein [2]) | Inhibition rate (%) (FAM19A5 protein [3])
GYTYFTTVTVEHFETQPGEEA [FB-21 (H12F13)] | 9.8 nM | – | –
GYTYFTTVTVEIFETQPGEEA [FB-21 (I12F13)] | 9.9 nM | – | –
GYTYFTTVTVEMRETQPGEEA [FB-21 (M12R13)] | 47.9 nM | – | –
GYTYFTTVTVEPYETQPGEEA [FB-21 (P12Y13)] | 39 nM | – | –
GYTYFTTVTVEQRETQPGEEA [FB-21 (Q12R13)] | 39.9 nM | – | –
KNYTYFTTVTVETNKETQ [FB-m11dC] | – | 65% | 30.4%
KNYTYFTTVTVENKETQ [FB-m10dC] | – | 62% | 21.9%
KNYTYFTTVTVNKETQ [FB-m9dC] | – | 16.8% | 2.7%
KNYTYFTTVTNKETQ [FB-m8dC] | – | 5.1% | -0.9%
KNYTYFTTVNKETQ [FB-m7dC] | – | 4.4% | 0.4%
KNYTYFTTNKETQ [FB-m6dC] | – | 14.9% | 5.5%
KNTYFTTVTVETNKETQ [FB-m10dN] | – | 7.7% | 0%
KNYFTTVTVETNKETQ [FB-m9dN] | – | 2.5% | -1.6%
KNFTTVTVETNKETQ [FB-m8dN] | – | 3.3% | -1.1%
KNTTVTVETNKETQ [FB-m7dN] | – | 2% | -1.8%
